From patent US20150322119A1
pKd: −log10 of the molar value.

Experiments:
[1] = target: murine FcγRIII, soluble form (mouse) (UniProt P08508); test: SPR, equilibrium KD
[2] = target: murine FcγRI extracellular domain with C-terminal 6×His-tag (mouse) (UniProt P26151); test: SPR, equilibrium KD
[3] = target: murine FcγRIV, soluble form (mouse); test: SPR, equilibrium KD
[4] = target: murine FcγRIIB, soluble form (mouse) (UniProt P08101); test: SPR, equilibrium KD
[5] = target: mouse FcRn (mouse) (UniProt Q61559); test: SPR, FcRn coated on CM5 chip, antibody flowed at pH 6.0
Sequence of UniProt Q61559 (Q61559 22-297 limits assumed): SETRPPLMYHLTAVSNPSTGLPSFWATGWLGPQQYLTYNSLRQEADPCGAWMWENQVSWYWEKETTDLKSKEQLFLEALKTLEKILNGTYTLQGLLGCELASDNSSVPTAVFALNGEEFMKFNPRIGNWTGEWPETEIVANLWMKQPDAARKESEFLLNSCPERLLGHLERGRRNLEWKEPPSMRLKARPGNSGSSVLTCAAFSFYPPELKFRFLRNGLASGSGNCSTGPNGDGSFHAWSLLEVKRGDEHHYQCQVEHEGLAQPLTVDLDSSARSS

Sequence of mouse anti-mouse CTLA-4 antibody 9D9, mouse IgG2a isotype (P01863 whole entry): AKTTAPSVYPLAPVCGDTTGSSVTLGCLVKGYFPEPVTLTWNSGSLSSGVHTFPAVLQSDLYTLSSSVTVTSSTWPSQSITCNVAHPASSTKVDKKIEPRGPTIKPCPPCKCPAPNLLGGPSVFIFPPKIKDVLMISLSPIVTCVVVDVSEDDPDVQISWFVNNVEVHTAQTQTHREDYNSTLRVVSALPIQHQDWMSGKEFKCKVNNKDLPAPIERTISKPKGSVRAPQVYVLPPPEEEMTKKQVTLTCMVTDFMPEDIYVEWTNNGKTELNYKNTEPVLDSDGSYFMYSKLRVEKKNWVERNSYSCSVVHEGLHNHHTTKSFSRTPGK
Sequence of UniProt P08101 (P08101 30-207 limits assumed): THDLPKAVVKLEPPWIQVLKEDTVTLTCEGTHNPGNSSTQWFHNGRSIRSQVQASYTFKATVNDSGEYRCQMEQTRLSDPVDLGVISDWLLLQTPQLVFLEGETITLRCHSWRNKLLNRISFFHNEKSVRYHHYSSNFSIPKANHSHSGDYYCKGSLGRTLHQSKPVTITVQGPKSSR
Sequence of UniProt P08508 (P08508 31-215 limits assumed): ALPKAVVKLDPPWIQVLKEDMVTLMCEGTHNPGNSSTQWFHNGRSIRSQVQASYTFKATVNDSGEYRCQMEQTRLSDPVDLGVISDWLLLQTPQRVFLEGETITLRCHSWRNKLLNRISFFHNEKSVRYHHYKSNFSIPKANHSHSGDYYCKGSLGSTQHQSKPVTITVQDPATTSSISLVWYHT
Sequence of UniProt P26151 (P26151 other isoform, or with tags, fused parts or gaps): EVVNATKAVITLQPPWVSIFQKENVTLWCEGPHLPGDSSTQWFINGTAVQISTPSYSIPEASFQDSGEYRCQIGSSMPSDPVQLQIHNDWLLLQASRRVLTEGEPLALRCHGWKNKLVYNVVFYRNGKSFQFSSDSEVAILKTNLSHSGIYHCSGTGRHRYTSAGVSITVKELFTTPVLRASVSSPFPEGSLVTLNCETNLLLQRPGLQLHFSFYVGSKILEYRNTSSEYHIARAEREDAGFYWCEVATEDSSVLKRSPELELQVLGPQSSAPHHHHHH

| pKd [1] | pKd [2] | pKd [3] | pKd [4] | pKd [5] | Substance |
| --- | --- | --- | --- | --- | --- |
| 5.82 | 7.49 | 7.53 | 5.85 | 7.87 | mouse anti-mouse CTLA-4 antibody 9D9, mouse IgG2a isotype |
| 5.73 |  |  | 6.32 | 7.65 | mouse anti-mouse CTLA-4 antibody 9D9, mouse IgG1 isotype |
|  |  |  |  | 7.61 | mouse anti-mouse CTLA-4 antibody 9D9, mouse IgG1 isotype containing a D265A mutation (from UniProt P01868 1-324) |
| 5.61 |  | 7.25 | 6.13 | 7.71 | mouse anti-mouse CTLA-4 antibody 9D9, mouse IgG2b isotype (original isotype, derived from the hybridoma) |
